Columns and labels:
[1] = target: Cdh1 (UniProt P53197); experiment: FLAG-bead in vitro Co-IP, immunoblot; conditions: reference: wild type FLAG-Set1; sites S228
[2] = target: Cdh1 (UniProt P53197); experiment: FLAG-bead in vitro Co-IP after Cla4; conditions: reference: wild type FLAG-Set1, Cla4-treated; sites S228

| binding against the reference [1] | binding against the reference [2] | Substance |
| --- | --- | --- |
| stronger |  | Set1 (from UniProt P38827) FLAG-Set1-S228A |
|  | stronger | Set1 (from UniProt P38827) FLAG-Set1-S228A, Cla4-treated |

From PMC10541012
